Consider two molecules from article PMC6322289 (2019).

This assay addresses β-1,3-glucanase (Hevea brasiliensis (endogenous in latex …, UniProt P52407 37-356)). The assay can be described thus: SPR.

Sequence of β-1,3-glucanase (Hevea brasiliensis (P52407 37-356): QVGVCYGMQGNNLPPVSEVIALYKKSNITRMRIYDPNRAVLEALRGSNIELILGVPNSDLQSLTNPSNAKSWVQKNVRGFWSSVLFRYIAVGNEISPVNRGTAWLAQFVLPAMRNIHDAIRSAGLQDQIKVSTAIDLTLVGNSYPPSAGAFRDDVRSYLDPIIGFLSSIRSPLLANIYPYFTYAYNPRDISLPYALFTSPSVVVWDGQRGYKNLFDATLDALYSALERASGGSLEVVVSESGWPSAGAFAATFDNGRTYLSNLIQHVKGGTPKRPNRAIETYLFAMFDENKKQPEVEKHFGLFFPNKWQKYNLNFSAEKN

B1: pro-hevein (natural protein)
chain: EQCGRQAGGKLCPNNLCCSQWGWCGSTDEYCSPDHNCQSNCKDSGEGVGGGSASNVLATYHLYNSQDHGWDLNAASAYCSTWDANKPYSWRSKYGWTAFCGPVGAHGQSSCGKCLSVTNTGTGAKTTVRIVDQCSNGGLDLDVNVFRQLDTDGKGYERGHITVNYQFVDCGDSFNPLFSVMKSSVIN
In turn, B1 gave an off-rate constant (koff) of 0.0794 s⁻¹.

B2: hevein (natural protein)
chain: EQCGRQAGGKLCPNNLCCSQWGWCGSTDEYCSPDHNCQSNCKD
B2: the off-rate constant (koff) turned out to be 0.013 s⁻¹.

The term koff denotes the first-order rate constant of dissociation.
